Results taken from doi:10.1101/737510 (bioRxiv, 2019).

Target: DDA1 (human, UniProt Q9BW61 1-102)
Assay: crystal structure

binding result: binds
B1: DDB1(ΔBPB) (natural protein)
chain: MSYNYVVTAQKPTAVNGCVTGHFTSAEDLNLLIAKNTRLEIYVVTAEGLRPVKEVGMYGKIAVMELFRPKGESKDLLFILTAKYNACILEYKQSGESIDIITRAHGNVQDRIGRPSETGIIGIIDPECRMIGLRLYDGLFKVIPLDRDNKELKAFNIRLEELHVIDVKFLYGCQAPTICFVYQDPQGRHVKTYEVSLREKEFNKGPWKQENVEAEASMVIAVPEPFGGAIIIGQESITYHNGDKYLAIAPPIIKQSTIVCHNRVDPNGSRYLLGDMEGRLFMLLLEKEEQMDGTVTLKDLRVELLGETSIAECLTYLDNGVVFVGSRLGDSQLVKLNVDSNEQGSYVVAMETFTNLGPIVDMCVVDLERQGQGQLVTCSGAFKEGSLRIIRNGIGIHGTIDEIQKLHIRTVPLYESPRKICYQEVSQCFGVLSSRIEVQDTSGGTTALRPSASTQALSSSVSSSKLFSSSTAPHETSFGEEVEVHNLLIIDQHTFEVLHAHQFLQNEYALSLVSCKLGKDPNTYFIVGTAMVYPEEAEPKQGRIVVFQYSDGKLQTVAEKEVKGAVYSMVEFNGKLLASINSTVRLYEWTTEKELRTECNHYNNIMALYLKTKGDFILVGDLMRSVLLLAYKPMEGNFEEIARDFNPNWMSAVEILDDDNFLGAENAFNLFVCQKDSAATTDEERQHLQEVGLFHLGEFVNVFCHGSLVMQNLGETSTPTQGSVLFGTVNGMIGLVTSLSESWYNLLLDMQNRLNKVIKSVGKIEHSFWRSFHTERKTEPATGFIDGDLIESFLDISRPKMQEVVANLQYDDGSGMKREATADDLIKVVEELTRIH
